Assay results taken from patent publication US20250258178A1 (SHIONOGI, published 2025).

How the values were obtained:
[1] = biological target: T1, Peptide #4 (human); experiment: peptide microarray, fluorescent anti-mouse IgG
T1 construct: 15-mer of human HRG printed on a PEPperCHIP peptide microarray
T1 peptide: SHGPPLPQGPPPLLP
Procedure: (§1) An overlapping peptide scanning method was performed to find out specific antibody-binding peptide epitopes. The amino acid sequence of the HRG protein was obtained in NCBI protein database. PEPperPrint (registered trademark) (Heidelberg, Germany) was commissioned to prepare PEPperCHIP peptide microarrays designed from HRG protein sequences. Each peptide consisted of an overlapping peptide library having 15 amino acid residues overlapping 14 amino acid residues and was extended at the N- and C-terminus with a neutral GSGSGSG linker to ensure that the peptides were separated from each other. […] After treatment of 21 types of anti-HRG monoclonal antibodies, it stained with an anti-mouse IgG polyclonal secondary antibody followed by reading fluorescence intensity on a scanner to quantify protein-antibody binding.
(§2) Each microarray was processed as follows. Before incubation with a sample, a standard buffer was applied on slides followed by treating with a blocking buffer. The microarray was treated with a fluorescently-labeled anti-mouse IgG secondary antibody followed by the measurement of background fluorescence intensity caused by non-specific interactions using a scanner.
(§3) The microarray was incubated with the 21 types of anti-HRG monoclonal antibodies. The microarray was stained with a fluorescently labeled anti-mouse IgG secondary antibody. The fluorescence intensity at each position was measured by a scanner.

[2] = biological target: T2, human histidine-rich glycoprotein (HRG), purified from human plasma (human, UniProt P04196 19-525); experiment: sandwich ELISA, HRG captured by solid phase 40-10G
T2 construct: also called human purified HRG; human purified HRG protein
T2 sequence: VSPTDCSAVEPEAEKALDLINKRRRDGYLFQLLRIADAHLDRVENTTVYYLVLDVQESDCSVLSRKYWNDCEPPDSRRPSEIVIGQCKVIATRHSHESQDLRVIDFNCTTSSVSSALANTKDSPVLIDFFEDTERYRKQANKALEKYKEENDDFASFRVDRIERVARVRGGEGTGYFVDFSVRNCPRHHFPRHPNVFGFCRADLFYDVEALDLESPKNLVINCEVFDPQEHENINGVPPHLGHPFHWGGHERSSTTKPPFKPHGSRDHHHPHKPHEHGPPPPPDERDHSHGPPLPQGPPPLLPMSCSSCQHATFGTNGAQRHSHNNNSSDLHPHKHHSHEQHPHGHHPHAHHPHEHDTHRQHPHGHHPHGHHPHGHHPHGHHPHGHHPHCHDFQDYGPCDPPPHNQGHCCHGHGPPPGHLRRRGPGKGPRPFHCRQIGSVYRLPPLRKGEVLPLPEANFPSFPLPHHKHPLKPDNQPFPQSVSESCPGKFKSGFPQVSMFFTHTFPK
Procedure: (§4) The capture antibody solution was dispensed at 25 μL per well into 384-well Maxisorp plates (NUNC), and the plates were incubated at room temperature for 3 hours. The plates were washed twice with 120 μL of washing solution per well (0.05% Tween 20-containing PBS). A blocking solution (1% BSA-containing PBS) was dispensed at 30 μL per well, and the plates were incubated at room temperature for 3 hours. The blocking solution was removed followed by dispensing the standard substance for evaluation at 20 μL per well (n=2), and the plates were incubated at room temperature for 3 hours. After washing the plates four times with the washing solution as described above, the solution of each detector antibody was dispensed at 10 μL per well, followed by dispensing a horseradish peroxidase-streptavidin solution (0.05 μg/mL) at 10 μL per well, and the plates were incubated at room temperature for 1 hour. After washing the plates four times with the washing solution as described above, a chromogenic substrate solution (TMB (3,3′,5,5′-tetramethylbenzidine)) was dispensed at 20 μL per well followed by incubating the plates at room temperature for 10 minutes, then a reaction stop solution 0.5 M H₂SO₄ was added at 20 μL/well, and the absorbance at 450 nm was measured.
(§5) The results regarding the evaluation of combinations chosen from 21 types of anti-HRG monoclonal antibodies are shown in Table 1. In Table 1, the absorbance at a wavelength of 450 nm of each combination was determined as follows: less than 1.0 OD: −, 1.0 OD or more and less than 2.0 OD: +, 2.0 OD or more and less than 3.0 OD: ++, and 3.0 OD or more: +++. The combinations of antibodies which could construct a sandwich ELISA system having enough level of absorbance change were 86 sets evaluated as ++ or +++ in Table 1.

[3] = biological target: T2, human histidine-rich glycoprotein …; experiment: sandwich ELISA, HRG captured by solid phase 58-5C
Procedure: as §4, §5

[4] = biological target: T3, Peptide #14 (human); experiment: peptide microarray, fluorescent anti-mouse IgG
T3 construct: 15-mer of human HRG on the peptide microarray; the printed position spans only 14 residues
T3 peptide: GHHPHGHHPHGHHPH
Procedure: as §1, §2, §3

[5] = biological target: T4, Peptide #23 (human); experiment: peptide microarray, fluorescent anti-mouse IgG
T4 construct: 15-mer of human HRG printed on a PEPperCHIP peptide microarray
T4 peptide: HGHHPHCHDFQDYGP
Procedure: as §1, §2, §3

[6] = biological target: T5, Peptide #25 (human); experiment: peptide microarray, fluorescent anti-mouse IgG
T5 construct: 15-mer of human HRG printed on a PEPperCHIP peptide microarray
T5 peptide: HHPHCHDFQDYGPCD
Procedure: as §1, §2, §3

Binder | binding result [1] | absorbance at 450 nm (OD450) [2] [od] | absorbance at 450 nm (OD450) [3] [od] | binding result [4] | binding result [5] | binding result [6]
anti-HRG monoclonal antibody 69-1A (antibody, V domains shown, Mouse hybridoma monoclonal; also called clone No. 69-1A) VH: EVKLEESGGGLVQPGGSMKLSCAASGFTFSDAWMDWVRQSPEKGLEWVAEIRSKANNHGTYYAESVKGRFTISRDDSKSSVYLRMNSLSAEDTGIYYCTRPFAYWGQGTLVTVSA VL: DVVVTQTPLSLPVSLGDQASISCRSSQSLVHIDGNTYFHWYVQKPGQSPKLLIYKVSNRFSGVPDRFSGSGSGTDFTLKISRVEAEDLGVYFCSQSTHVPLTFGAGTKLELK | binds | 1 to 2 | 1 to 2 |  |  | 
anti-HRG monoclonal antibody 75-2D (antibody, V domains shown, Mouse hybridoma monoclonal; also called clone No. 75-2D) VH: QVQLQQSGAELMKPGASVKISCKATGYTFSSYWIEWVKQRPGHGLEWIGEILPGSGRTNYNEKFKGKATFTADTSSNTAYMQLSSLTSEDSAVYYCARYSYFYYFDYWGQGTTLTVSS VL: DNVLTQSPAIMSASLGERVTMTCTASSSVSSSYLHWYQQKPGSSPKLWIYSTSNLASGVPARFSGSGSGTSYSLTISSMEAEDAATYYCHQYHRSPWTFGGGTKLEIK |  |  |  | binds | binds | binds
